Measured values taken from the supplement of paper PMC10126150.
± gives the standard deviation of the averaged measurements.

System: ATP
Assay: switch fluorescence ratio, 500 uM ATP over buffer (Cy3 cluster intensity, sum of 5 cycles each) (fold (ratio)); higher = stronger signal-on switching upon ATP binding; sequences stand for … in TCGTCGGCAGCGTCAGATGTGTATAAGAGACAGTTTTTTTTTTTTTTTTTTTTTTTTT…TC
Settings: aptamer strand: ATP DNA aptamer (quencher-CACCTGGGGGAGTATTGCGGAGGAAGG + anchor), 100 nM annealed; ATP concentration: 500 uM
Procedure, shortened: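 Per cluster, summed Cy3 intensity from the target cycles was divided by that from the buffer cycles to give the fluorescence ratio, then averaged per switch-domain sequence. Clusters outside 100-1000 RFU were excluded. The Cy3-labelled switching-strand clusters, on a modified Illumina MiSeq flow-cell, were annealed to 100 nM quencher-labelled ATP aptamer and imaged in selection buffer, then after 15 min with 500 uM ATP at 22 °C, for five cycles with NaOH stripping and re-annealing between them.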
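Also: ATP exposure 15 min at 22 °C before imaging.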

| Sequence | switch fluorescence ratio |
| --- | --- |
| ATATAGTTTG | 1.001 ± 0.0031 |
| ATATATATCG | 1.01 ± 0.0093 |
| ATATATCGTG | 0.995 ± 0.019 |
| ATATATGGAG | 1.011 ± 0.00029 |
| ATATATGGTG | 1.05 ± 0.02 |
| ATATCAGGGG | 1.13 ± 0.017 |
| ATATCATGGG | 0.982 ± 0.017 |
| ATATCATGTC | 0.9895 ± 0.0032 |
| ATATCATTCA | 1.01 ± 0.019 |
| ATATCCAGGA | 1.02 ± 0.018 |
| ATATCCGCTG | 1.52 ± 0.071 |
| ATATCGGCAT | 1.01 ± 0.035 |
| ATATCGGTAG | 0.999 ± 0.014 |
| ATATCTATTT | 0.997 ± 0.019 |
| ATATCTTTTG | 0.9904 ± 0.0088 |
| ATATGAAGAG | 0.99884 ± 9.2e-05 |
| ATATGAAGGG | 1 ± 0.032 |
| ATATGAATA | 0.9987 ± 0.0037 |
| ATATGCAGGA | 0.965 ± 0.03 |
| ATATGCCGAT | 0.996 ± 0.013 |
| ATATGCGGCG | 1.02 ± 0.073 |
| ATATGCGTAT | 1.01 ± 0.02 |
| ATATGCTCAC | 1.05 ± 0.03 |
| ATATGGAGAT | 0.98 ± 0.017 |
| ATATGGATAA | 1.01 ± 0.012 |
| ATATGGGCTG | 1.05 ± 0.1 |

| Sequence | switch fluorescence ratio |
| --- | --- |
| ATATGGTAGT | 1.03 ± 0.032 |
| ATATGGTGCT | 1.004 ± 0.0074 |
| ATATGGTGGG | 1.01 ± 0.025 |
| ATATGTAGGT | 0.998 ± 0.049 |
| ATATGTATGG | 0.968 ± 0.011 |
| ATATGTGACT | 0.977 ± 0.014 |
| ATATGTGAGG | 0.985 ± 0.0073 |
| ATATGTGCCA | 0.98 ± 0.02 |
| ATATGTGGCG | 0.932 ± 0.011 |
| ATATGTGGGT | 0.989 ± 0.038 |
| ATATGTTGAA | 1.02 ± 0.027 |
| ATATGTTGAG | 1 ± 0.017 |
| ATATGTTTTT | 0.996 ± 0.018 |
| ATATTAGTTT | 1 ± 0.011 |
| ATATTATGAT | 0.985 ± 0.03 |
| ATATTATGGG | 0.9979 ± 0.0095 |
| ATATTCGGAA | 0.99369 ± 0.00071 |
| ATATTCGTTG | 1.007 ± 0.0027 |
| ATATTGAGGC | 1.01 ± 0.038 |
| ATATTGCTGG | 0.9724 ± 0.0085 |
| ATATTGGTGG | 0.991 ± 0.042 |
| ATATTTAATC | 0.999 ± 0.0079 |
| ATATTTAGCG | 0.968 ± 0.016 |
| ATATTTGATT | 0.977 ± 0.021 |
| ATATTTGGAG | 0.9981 ± 0.003 |
| ATATTTGGCC | 0.974 ± 0.021 |

| Sequence | switch fluorescence ratio |
| --- | --- |
| ATATTTTAAC | 1 ± 0.012 |
| ATATTTTGTG | 0.982 ± 0.026 |
| ATATTTTGTT | 1.03 ± 0.066 |
| ATATTTTTAT | 0.987 ± 0.0082 |
| ATATTTTTGG | 0.993 ± 0.011 |
| ATCAAAAACG | 1.01 ± 0.029 |
| ATCAAAAGAT | 0.9811 ± 0.0085 |
| ATCAAAGGGG | 1 ± 0.0072 |
| ATCAAATCGG | 1.01 ± 0.025 |
| ATCAAGGGGA | 0.972 ± 0.028 |
| ATCAATGGCA | 0.975 ± 0.035 |
| ATCAATGGGT | 0.979 ± 0.025 |
| ATCAATGTTC | 1.07 ± 0.094 |
| ATCAATTCGA | 1.021 ± 0.0038 |
| ATCAATTGAT | 1.01 ± 0.052 |
| ATCACATGAC | 1.19 ± 0.016 |
| ATCACATTCG | 1.02 ± 0.043 |
| ATCACGCGTA | 1.02 ± 0.037 |
| ATCACGGGCT | 0.967 ± 0.027 |
| ATCACTAGGA | 1.04 ± 0.037 |
| ATCACTCACT | 1.18 ± 0.06 |
| ATCACTCGTA | 1.03 ± 0.043 |
| ATCAGACTTG | 1.023 ± 0.0012 |
| ATCAGAGCTG | 0.964 ± 0.032 |
| ATCAGATGAA | 0.999 ± 0.023 |
| ATCAGATTGG | 0.989 ± 0.0099 |

| Sequence | switch fluorescence ratio |
| --- | --- |
| ATCAGGATGC | 1.04 ± 0.063 |
| ATCAGGCATT | 1.03 ± 0.011 |
| ATCAGGGACA | 1.18 ± 0.017 |
| ATCAGGGTAC | 1.05 ± 0.04 |
| ATCATAAGGT | 1.02 ± 0.02 |
| ATCATCCGTT | 1.04 ± 0.025 |
| ATCATGAGGT | 0.97829 ± 0.00072 |
| ATCATGCTTC | 0.994 ± 0.025 |
| ATCATGTGTT | 0.994 ± 0.022 |
| ATCATTCAAA | 1.008 ± 0.0073 |
| ATCATTCCTC | 1.573 ± 0.011 |
| ATCATTGGGC | 0.988 ± 0.025 |
| ATCATTGGTA | 1 ± 0.023 |
| ATCATTGTTA | 1 ± 0.053 |
| ATCCAAGATT | 1 ± 0.019 |
| ATCCAGTGTC | 1.057 ± 0.0061 |
| ATCCAGTGTG | 1.89 ± 0.2 |
| ATCCCCGGAG | 1.33 ± 0.12 |
| ATCCGAGCAT | 4.654 ± 0.039 |
| ATCCGGTTCG | 0.9946 ± 0.0095 |
| ATCCTAAGGC | 1 ± 0.029 |
| ATCCTGGGGT | 1.01 ± 0.029 |
| ATCCTTTGTG | 1.02 ± 0.053 |
| ATCGAAATGG | 1 ± 0.024 |
| ATCGAACCTT | 1.55 ± 0.45 |
| ATCGACTTTT | 1.015 ± 0.003 |

| Sequence | switch fluorescence ratio |
| --- | --- |
| ATCGAGAACG | 0.993 ± 0.014 |
| ATCGAGTGTG | 1.01 ± 0.027 |
| ATCGATGGGT | 1.03 ± 0.047 |
| ATCGCCTTGT | 0.9943 ± 0.0024 |
| ATCGCGGCCG | 1.02 ± 0.04 |
| ATCGCGTACT | 1.19 ± 0.04 |
| ATCGCTTAAG | 0.991 ± 0.035 |
| ATCGCTTAAT | 1.03 ± 0.049 |
| ATCGCTTGAG | 0.9725 ± 0.0034 |
| ATCGGAAAAA | 1.02 ± 0.026 |
| ATCGGAGGAA | 1.17 ± 0.061 |
| ATCGGATTGT | 1.012 ± 0.007 |
| ATCGGATTTC | 1.02 ± 0.047 |
| ATCGGCATTT | 1.027 ± 0.0084 |
| ATCGGCGATT | 1.04 ± 0.024 |
| ATCGGCGGGA | 0.986 ± 0.01 |
| ATCGGGGATT | 1.01 ± 0.014 |
| ATCGGGGGCC | 0.973 ± 0.042 |
| ATCGGGGGTG | 0.982 ± 0.036 |
| ATCGGGGTAT | 0.992 ± 0.042 |
| ATCGGGGTCG | 1.05 ± 0.038 |
| ATCGGGTGGG | 1.001 ± 0.0075 |
| ATCGGGTGTG | 0.9871 ± 0.0015 |
| ATCGGGTTGG | 0.965 ± 0.018 |
| ATCGGTATAT | 1.02 ± 0.039 |
| ATCGTCCCGA | 1.05 ± 0.039 |

| Sequence | switch fluorescence ratio |
| --- | --- |
| ATCGTGCACA | 0.973 ± 0.036 |
| ATCGTGGATT | 0.969 ± 0.019 |
| ATCGTGGGTT | 0.97919 ± 0.00077 |
| ATCGTGTAGG | 0.99 ± 0.11 |
| ATCGTGTATC | 1.06 ± 0.0081 |
| ATCGTTATTA | 1.02 ± 0.018 |
| ATCGTTCCGC | 1.22 ± 0.03 |
| ATCGTTGGG | 1.01 ± 0.055 |
| ATCGTTTCGT | 1.02 ± 0.019 |
| ATCGTTTGTT | 1.04 ± 0.062 |
| ATCGTTTTGA | 0.989 ± 0.013 |
| ATCGTTTTTA | 1.001 ± 0.004 |
| ATCTAAAAGG | 1.01 ± 0.059 |
| ATCTAAACGT | 1.0574 ± 0.00082 |
| ATCTAATTAG | 0.963 ± 0.045 |
| ATCTACCATG | 1.03 ± 0.04 |
| ATCTACGAAA | 1.31 ± 0.03 |
| ATCTAGAGGA | 0.985 ± 0.023 |
| ATCTAGGGGA | 0.9995 ± 0.0066 |
| ATCTAGGGGG | 1.05 ± 0.017 |
| ATCTAGGGTG | 1.08 ± 0.012 |
| ATCTAGTAGT | 1.01 ± 0.013 |
| ATCTATAGTG | 0.9651 ± 0.0035 |
